Assay results published in publication PMC8379990, “Structure of autoinhibited Akt1 reveals mechanism of PIP3-mediated activation” (Proceedings of the National Academy of Sciences of the …, 2021).

Molecular target: T1, C-terminal tail peptide (FITC-SMEAVDSERRPHFPQFSYSASGTA) (human, C460A (from the letters against P31749, from memory; not stated by the paper) …, FITC (fluorescein) on the N-terminus; unphosphorylated)
T1 construct: residues 457 to 480 of human Akt1 (the C-terminal tail residues missing in Akt1^ΔC); The methods call it 'the C-terminal 35 amino acids of Akt1', but the printed peptide has 24 residues; also called fluorescein-labeled peptide (unphosphorylated)
T1 peptide: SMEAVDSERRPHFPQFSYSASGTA
Assay: fluorescence polarisation; fluorescence anisotropy; reverse titration of 200 to 250 µM Akt1^ΔC in buffer with 100 nM fluorescein-labeled peptide; 20 °C, 20 mM Tris pH 8.0, 100 mM NaCl, 1 mM TCEP; one-site binding model; three independent titrations; saturation not reached
Conditions: both partners purified

B1: Akt1 1 to 456 (Akt1^ΔC) (domain or fragment)
chain: MNDVAIVKEGWLHKRGEYIKTWRPRYFLLKNDGTFIGYKERPQDVDQREAPLNNFSVAQCQLMKTERPRPNTFIIRCLQWTTVIERTFHVETPEEREEWTTAIQTVADGLKKQEEEEMDASAEHTDMEVSLAKPKHRVTMNEFEYLKLLGKGTFGKVILVKEKATGRYYAMKILKKEVIVAKDEVAHTLTENRVLQNSRHPFLTALKYSFQTHDRLCFVMEYANGGELFFHLSRERVFSEDRARFYGAEIVSALDYLHSEKNVVYRDLKLENLMLDKDGHIKITDFGLCKEGIKDGATMKTFCGTPEYLAPEVLEDNDYGRAVDWWGLGVVMYEMMCGRLPFYNQDHEKLFELILMEEIRFPRTLGPEAKSLLSGLLKKDPKQRLGGGSEDAKEIMQHRFFAGIVWQHVYEKKLSPPFKPQVTSETDTRYFDEEFTAQMITITPPDQDD
modifications: phosphothreonine at T450 (stoichiometrically monophosphorylated, turn motif)
Kd: ~500 µM
